Experimental data as given in publication PMC3638400 (Philosophical Transactions of the Royal Society B: …, 2013).

T1: filaments of keratins 7 and 18 (human, UniProt P08729 1-469; P05783 1-430)
T1 construct: keratin 7, recombinant human; keratin 18, recombinant human; In vitro assembled keratin filaments; also called keratin filaments
T1 sequence (looked up) 1: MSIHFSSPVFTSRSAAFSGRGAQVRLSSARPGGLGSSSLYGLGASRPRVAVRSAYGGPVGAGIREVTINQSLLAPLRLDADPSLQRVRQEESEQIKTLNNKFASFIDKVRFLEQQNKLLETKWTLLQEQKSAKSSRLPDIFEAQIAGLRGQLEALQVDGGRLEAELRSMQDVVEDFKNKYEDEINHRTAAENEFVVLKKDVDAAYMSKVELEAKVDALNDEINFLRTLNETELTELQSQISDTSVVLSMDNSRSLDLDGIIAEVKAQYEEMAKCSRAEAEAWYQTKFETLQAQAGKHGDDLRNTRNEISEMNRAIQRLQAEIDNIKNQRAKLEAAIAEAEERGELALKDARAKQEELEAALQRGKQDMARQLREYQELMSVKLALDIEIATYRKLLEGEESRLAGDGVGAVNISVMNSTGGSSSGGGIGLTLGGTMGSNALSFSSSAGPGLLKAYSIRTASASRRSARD
T1 sequence (looked up) 2: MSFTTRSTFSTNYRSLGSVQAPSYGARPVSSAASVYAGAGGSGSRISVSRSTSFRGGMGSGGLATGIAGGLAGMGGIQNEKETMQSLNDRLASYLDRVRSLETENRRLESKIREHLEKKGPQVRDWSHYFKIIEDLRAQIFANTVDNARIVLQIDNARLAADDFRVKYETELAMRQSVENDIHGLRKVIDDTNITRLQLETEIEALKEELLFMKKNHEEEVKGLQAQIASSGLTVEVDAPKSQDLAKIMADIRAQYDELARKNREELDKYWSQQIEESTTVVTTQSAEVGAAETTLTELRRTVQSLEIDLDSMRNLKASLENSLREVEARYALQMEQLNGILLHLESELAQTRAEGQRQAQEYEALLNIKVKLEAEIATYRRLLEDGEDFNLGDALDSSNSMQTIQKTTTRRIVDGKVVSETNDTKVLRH


What was measured:
[1] = molecular target: desmin (assembled into filaments, or immobilised on a sensor chip) (not stated (chicken gizzard desmin or recombinant human desmin prepared)) (UniProt P17661); assay: co-sedimentation; high-speed; filaments assembled at 0.2 mg ml^-1 with WT CRYAB at 1 : 1 molar ratio; 20 mM HEPES, 100 mM NaCl, 1 mM MgCl2, 1 mM DTT, pH 6.3; 23, 39 or 44°C
[2] = molecular target: T1, filaments of keratins 7 and 18; assay: co-sedimentation; filaments assembled with the sHSP (desmin : sHSP 1 : 1 molar ratio) at three temperatures (22, 37, 44°C named in the text); pellet and supernatant by SDS-PAGE, Coomassie Blue; conditions: both partners purified
[3] = molecular target: the molecule itself; assay: SEC; Superformance column packed with Fractogel EMD BioSEC, calibrated with protein standards; 20 mM Tris-HCl pH 7.4, 100 mM NaCl, room temperature; self-association into oligomers
[4] = molecular target: T2, glial fibrillary acidic protein (GFAP) (human, UniProt P14136 1-432); assay: SPR; Biacore 3000; desmin, GFAP and vimentin immobilised on a CM5 chip; CRYAB injected at 20 g ml^-1 (so in the source) for 7 min at 37°C, then washed 7 min; 10 mM HEPES pH 7.4, 0.15 M NaCl, 3.4 mM EDTA, 0.005% P20; double referencing; conditions: both partners purified
T2 construct: glial fibrillary acidic protein, recombinant human; Assembled into filaments for co-sedimentation and viscometry; immobilised on the chip for SPR; also called WT GFAP; GFAP filaments
T2 sequence (P14136 whole entry): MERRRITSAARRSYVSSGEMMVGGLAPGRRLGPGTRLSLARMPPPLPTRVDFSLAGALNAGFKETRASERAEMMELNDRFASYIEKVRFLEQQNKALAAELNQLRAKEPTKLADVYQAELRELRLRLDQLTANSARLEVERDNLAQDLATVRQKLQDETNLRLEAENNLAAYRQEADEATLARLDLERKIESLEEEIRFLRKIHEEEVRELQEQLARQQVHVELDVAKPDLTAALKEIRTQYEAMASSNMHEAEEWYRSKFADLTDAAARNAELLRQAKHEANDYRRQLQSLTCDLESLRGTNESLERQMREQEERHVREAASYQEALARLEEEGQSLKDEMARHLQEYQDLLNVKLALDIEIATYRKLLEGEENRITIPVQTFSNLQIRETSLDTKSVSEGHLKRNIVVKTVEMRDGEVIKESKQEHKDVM

| Molecule | percent of the total CRYAB co-sedimented (pH 6.3, 39°C to 44°C) [1] | binding result [2] | binding result [3] | binding result [4] |
| --- | --- | --- | --- | --- |
| wild-type αB-crystallin (CRYAB, HSPB5) (from UniProt P02511 1-175) (natural protein) | > 35 per cent | – | – | – |
| wild-type αB-crystallin (CRYAB, HSPB5) (natural protein, human, UniProt P02511 1-175, looked up, αB-crystallin (CRYAB, HSPB5), human; Polydisperse oligomer (apparent size about 520 kDa by SEC); also called WT CRYAB; WT αB-crystallin) MDIAIHHPWIRRPFFPFHSPSRLFDQFFGEHLLESDLFPTSTSLSPFYLRPPSFLRAPSWFDTGLSEMRLEKDRFSVNLDVKHFSPEELKVKVLGDVIEVHGKHEERQDEHGFISREFHRKYRIPADVDPLTITSSLSSDGVLTVNGPRKQVSGPERTIPITREEKPAVTAAPKK | – | binds | binds | – |
| R120G αB-crystallin (R120G CRYAB) (natural protein, human, UniProt P02511 1-175, looked up, αB-crystallin (CRYAB, HSPB5), human, with the disease-causing mutation R120G; Mutation found in a human family with desmin-related myopathy and cataract; Oligomer of apparent size 684 kDa by SEC; also called CRYAB R120G) MDIAIHHPWIRRPFFPFHSPSRLFDQFFGEHLLESDLFPTSTSLSPFYLRPPSFLRAPSWFDTGLSEMRLEKDRFSVNLDVKHFSPEELKVKVLGDVIEVHGKHEERQDEHGFISREFHGKYRIPADVDPLTITSSLSSDGVLTVNGPRKQVSGPERTIPITREEKPAVTAAPKK | – | binds | binds | binds |
